B1: BiS13 (bispecific antibody)
heavy: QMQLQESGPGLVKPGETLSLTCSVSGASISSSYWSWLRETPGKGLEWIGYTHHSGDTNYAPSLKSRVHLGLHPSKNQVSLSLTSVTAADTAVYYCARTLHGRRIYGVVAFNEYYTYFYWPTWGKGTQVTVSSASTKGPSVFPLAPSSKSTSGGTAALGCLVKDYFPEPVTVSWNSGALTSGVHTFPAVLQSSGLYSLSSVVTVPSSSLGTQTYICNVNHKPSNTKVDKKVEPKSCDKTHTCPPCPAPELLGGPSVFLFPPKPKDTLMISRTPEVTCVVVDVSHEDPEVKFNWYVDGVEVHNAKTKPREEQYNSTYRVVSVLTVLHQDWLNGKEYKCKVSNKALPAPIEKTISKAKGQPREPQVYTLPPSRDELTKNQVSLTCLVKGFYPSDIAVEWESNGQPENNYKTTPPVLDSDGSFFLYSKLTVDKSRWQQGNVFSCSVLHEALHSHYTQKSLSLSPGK
light: ALTQPRSVSASPGQSVTISCTGTHNLVSWCQHQPGRAPKLLIYDFNKRPSGVPDRFSGSGSGGTASLTITGLQDDDDAEYFCWAYEAFGGGTKLTVLGQGGGGSGGGGSGGGGSADLVQSGAVVKKPGDSVRISCEAQGYRFPDYIIHWIRRAPGQGPEWMGWMNPMGGQVNIPWKFQGRVSMTRDTSIETAFLDLRGLKSDDTAVYYCVRDRSNGSGKRFESSNWFLDLWGRGTAVTIQSGGGGSGGGGSGGGGSGGGGSGGGGSDISVAPGETVRITCGGESIGSRAVQWYQHRPGQAPRLIIYNNQDRPPGIPERFSGSPDIDFGTTATLTISNVEAGDEATYYCHIWDSRRPTNWELGPGTTLTVLGQPKAAPSVTLFPPSSEELQANKATLVCLISDFYPGAVTVAWKADSSPVKAGVETTTPSKQSNNKYAASSYLSLTPEQWKSHKSYSCQVTHEGSTVEKTVAPTECS
B2: N49P7 (antibody, V domains shown)
VH: ADLVQSGAVVKKPGDSVRISCEAQGYRFPDYIIHWIRRAPGQGPEWMGWMNPMGGQVNIPWKFQGRVSMTRDTSIETAFLDLRGLKSDDTAVYYCVRDRSNGSGKRFESSNWFLDLWGRGTAVTIQS
VL: ALTQPRSVSASPGQSVTISCTGTHNLVSWCQHQPGRAPKLLIYDFNKRPSGVPDRFSGSGSGGTASLTITGLQDDDDAEYFCWAYEAFGGGTKLTVL
B3: ePGT121 (antibody, V domains shown)
VH: QMQLQESGPGLVKPGETLSLTCSVSGASISSSYWSWLRETPGKGLEWIGYTHHSGDTNYAPSLKSRVHLGLHPSKNQVSLSLTSVTAADTAVYYCARTLHGRRIYGVVAFNEYYTYFYWPTWGKGTQVTVSS
VL: SDISVAPGETVRITCGGESIGSRAVQWYQHRPGQAPRLIIYNNQDRPPGIPERFSGSPDIDFGTTATLTISNVEAGDEATYYCHIWDSRRPTNWELGPGTTLTVLG

Tests used:
Test in all cases: cell-based or functional assay
[1] = biological target: HIV-1 Env of pseudovirus 231965.c01 (clade D) (HIV-1)
[2] = biological target: HIV-1 Env of pseudovirus MS208.A1 (clade A) (HIV-1)
[3] = biological target: HIV-1 Env of pseudovirus 6545.V4.C1 (clade AC) (HIV-1)
[4] = biological target: HIV-1 Env of pseudovirus Q259.17 (clade A) (HIV-1)
[5] = biological target: HIV-1 Env of pseudovirus TRO.11-N332A (clade B) (HIV-1)
[6] = biological target: HIV-1 Env of pseudovirus BJOX009000.02.4 (clade AE) (HIV-1)
[7] = biological target: HIV-1 Env of pseudovirus QH0692.42-N332A (clade B) (HIV-1)
[8] = biological target: HIV-1 Env of pseudovirus CAP45.G3 (clade C) (HIV-1)
[9] = biological target: HIV-1 Env of pseudovirus CNE8 (clade AE) (HIV-1)
[10] = biological target: HIV-1 Env of pseudovirus 3016.v5.c45 (clade D) (HIV-1)
[11] = biological target: HIV-1 Env of pseudovirus X1632.S2.B10 (clade G) (HIV-1)
[12] = biological target: HIV-1 Env of pseudovirus BJOX010000.06.2 (clade AE (T/F)) (HIV-1)
[13] = biological target: HIV-1 Env of pseudovirus T257-31 (clade AG) (HIV-1)

Row | Binder | Pseudovirus neutralization IC80 (TZM-bl luciferase) [1] [µg/mL] | Pseudovirus neutralization IC80 (TZM-bl luciferase) [2] [µg/mL] | Pseudovirus neutralization IC80 (TZM-bl luciferase) [3] [µg/mL] | Pseudovirus neutralization IC80 (TZM-bl luciferase) [4] [µg/mL] | Pseudovirus neutralization IC80 (TZM-bl luciferase) [5] [µg/mL] | Pseudovirus neutralization IC80 (TZM-bl luciferase) [6] [µg/mL] | Pseudovirus neutralization IC80 (TZM-bl luciferase) [7] [µg/mL] | Pseudovirus neutralization IC80 (TZM-bl luciferase) [8] [µg/mL] | Pseudovirus neutralization IC80 (TZM-bl luciferase) [9] [µg/mL] | Pseudovirus neutralization IC80 (TZM-bl luciferase) [10] [µg/mL] | Pseudovirus neutralization IC80 (TZM-bl luciferase) [11] [µg/mL] | Pseudovirus neutralization IC80 (TZM-bl luciferase) [12] [µg/mL] | Pseudovirus neutralization IC80 (TZM-bl luciferase) [13] [µg/mL]
1 | B1 | 0.0157 | 0.0998 | < 0.0001 | 0.0114 | 0.0054 | 0.0096 | 0.0311 | 0.0021 | 0.137 | 0.0156 | 0.06 | 0.172 | 
2 | B2 | 0.196 | 0.194 | 1.76 | 0.163 | 0.0622 | 0.0999 | 0.35 | 0.112 | 0.175 | 0.516 | 0.27 | 0.453 | 0.577
3 | B3 | > 50 | > 50 | > 50 | > 50 | 1.35 | 0.0428 | > 50 | 5.78 | > 50 | > 50 | > 50 | > 50 | > 50

Source: patent US20260242449A1 (INTERNATIONAL AIDS VACCINE INITIATIVE, published 2026)
